For data set [1], the system named is Synechocystis PCC6803. The data set is described as follows: Toxicity assay for erythritol: resistance of Synechocystis PCC6803, growth rate. Conditions: BG-11, pH 8.0, low light ~40 μE, 30° C. The class given is cell-based. As to the method:
FIG. 4. Toxicity assay for erythritol. Synechocystis PCC6803 was inoculated in 10 ml BG-11 supplemented with 10 mM TES-buffer-NaOH (pH=8.0) and with 10 μg/ml kanamycine at an OD of 0.2. The culture was incubated at low light intensity (˜40 μE), 30° C. and shaking at 120 rpm. It was clearly shown (FIG. 4) that up to a concentration of 10 gr/L erythritol, cultures are not affected with respect to growth-rate.

For data set [2] the following is noted: substrate D-erythrose; cited from earlier work.
For data set [3] the following is noted: co-factor NADPH; cited from earlier work.
For data set [4] the following is noted: substrate D-erythrose-4-P; cited from earlier work.

These results are taken from patent US10273490B2, “Erythritol production in cyanobacteria” (Photanol B.V., priority 2014, dated 2019).

Like-named read-outs stand apart in the source and are kept apart here.

Turning to `OC[C@@H](O)[C@@H](O)CO` [erythritol], the “erythritol concentration up to which cultures are not affected with respect to growth-rate” value in data set [1] was at most 10 gr/L.

B1: ALR1: reductase from Aspergillus niger, SEQ ID NO: 13, 14 (protein)
chain: MSLGKKVTLNSGAQIPQLGFGTWQSAPGQVGDAVYEALKAGYRHLDLATIYQNQREVAEGIKRAYKDVPGLKREDIFITSKLWNSQHDPAVVEKALDECLAELELDYLDLYLVHWPVSFTTGSELFPLVKDSSVEGGDVVINDDISIVDTWKAMTQLPKSKARTVGVSNHMIPHLEAIINATGVVPAVNQIERHPVLQSNELIEYCQKKGIHVTAYSAFGNNGFGVPLLVTRPEVKEVAESASKRLGTTVTPAQVILAWSQVGGHSVIPKSVTPSRIHENFKEVELTPEEIAKVSELGKDRRRYNTPYVANTPRWDIDIFGEEEEKPAGHKVIV
modifications: Aspergillus niger
As to B1, in data set [2], the “D-erythrose Kcat” value is 25 s⁻¹ and the Km is 139 µM.

B2: ErCm: reductase from Candida magnolia JH110, SEQ ID NO: 9, 10 (protein, listed as Candida magnoliae)
chain: MSSTYTLTRLSAPSMVLNSGSQIPAVGYGLWKQQGSEAKDSVRCAIESGYRHLDCATAYQNHKEVGQAIREAGVPRDELWITSKVWGTHFDNPEEGLDDILEELGVEYLDLLLLHLPVAFKRNPEDPKQLRGLPVDHDMKYADVWARMEKLPKSKVRNIGVSNLTVRALDELLQTAKVTPAVNQVEMHPNLPQKKLLDYCKSKGIVVQAYSPLAQGQHENPVVTDIADDLGVSPAQVVLSWGALRGTNILPKSSTPSRIRENLELIQLSDDHMRRIDALARR
As for B2, in data set [2], the “D-erythrose Kcat” value was 7.6 s⁻¹ and the Km was 8500 µM. In addition, in data set [3], the Km is 16 µM and the “NADPH Kcat” value was 48 s⁻¹.

B3: TM1254: phosphatase from Thermotoga maritima MSB8, SEQ ID NO: 5, 6 (protein, listed as Thermotoga maritima)
chain: MEAVIFDMDGVLMDTEPLYFEAYRRVAESYGKPYTEDLHRRIMGVPEREGLPILMEALEIKDSLENFKKRVHEEKKRVFSELLKENPGVREALEFVKSKRIKLALATSTPQREALERLRRLDLEKYFDVMVFGDQVKNGKPDPEIYLLVLERLNVVPEKVVVFEDSKSGVEAAKSAGIERIYGVVHSLNDGKALLEAGAVALVKPEEILNVLKEVL
On to B3, for which, in data set [4], the “D-erythrose-4-P Vmax” value is recorded as 2.63 umol/min/mg protein and the Km is 152 µM.

B4: GLD1: reductase from Hypocrea jecorina (Trichoderma reesei), SEQ ID NO: 11, 12 (protein, listed as Hypocrea jecorina)
chain: MSSGRTVTLNTGYKIPQIGYGTWQAAPGEVGAGVFEALKVGYRHLDLAKVYGNQKEVGEGIKKALAEVPGLKREDIFITSKLWNNSHKPEDVEPALDDTLAELGLDYLDLYLIHWPVAFAPGADLFPKSEDGSEVQLNQNVSIVQTWKAMTELPKSKVRSVGVSNFTIEHLDAVIEATGVVPAVNQIERHPRLPNQPLIDYCAKKGIIITAYSAFGNNTKGLPLLVSSDEVKAVADNLSKKQGKTVTPAQVILAWSQIGGHTVIPKSVTKARIAENFQEVELDDEAIAALNKLGEKPQRFNIPYTYKPRWNINLFNTEEEKAAAHTAVIKL
On to B4, for which the Km in data set [2] is 16 to 134 µM.

B5: YidA: phosphatase from Escherichia coli, SEQ ID NO: 1, 2 (protein, listed as Escherichia coli)
chain: MAIKLIAIDMDGTLLLPDHTISPAVKNAIAAARARGVNVVLTTGRPYAGVHNYLKELHMEQPGDYCITYNGALVQKAADGSTVAQTALSYDDYRFLEKLSREVGSHFHALDRTTLYTANRDISYYTVHESFVATIPLVFCEAEKMDPNTQFLKVMMIDEPAILDQAIARIPQEVKEKYTVLKSAPYFLEILDKRVNKGTGVKSLADVLGIKPEEIMAIGDQENDIAMIEYAGVGVAMDNAIPSVKEVANFVTKSNLEDGVAFAIEKYVLN
As to B5, in data set [4], the “D-erythrose-4-P Kcat” value was 19 s⁻¹ and the Km is 19 µM.

B6: Gcy1p: erythrose reductase from Saccharomyces cerevisiae, SEQ ID NO: 7, 8 (protein, listed as Saccharomyces cerevisiae)
chain: MPATLHDSTKILSLNTGAQIPQIGLGTWQSKENDAYKAVLTALKDGYRHIDTAAIYRNEDQVGQAIKDSGVPREEIFVTTKLWCTQHHEPEVALDQSLKRLGLDYVDLYLMHWPARLDPAYIKNEDILSVPTKKDGSRAVDITNWNFIKTWELMQELPKTGKTKAVGVSNFSINNLKDLLASQGNKLTPAANQVEIHPLLPQDELINFCKSKGIVVEAYSPLGSTDAPLLKEPVILEIAKKNNVQPGHVVISWHVQRGYVVLPKSVNPDRIKTNRKIFTLSTEDFEAINNISKEKGEKRVVHPNWSPFEVFK
For B6, in data set [2], the Km was 3400 µM.

The Km is the concentration of substrate that gives half-maximal velocity.
